Assay results: US20260116991A1 (HAINAN SIMCERE ZAIMING PHARMACEUTICAL, published 2026)
Changes are numbered by the printed parent chain.

B1: F1.62.9 (antibody, human IgG1, kappa, V domains shown)
VH: QVQLQQSDAELVKPGASVKISCKVSGYIFTDHTIHWMKQRPEQGLEWIGYIYPRDGSIKYNENFKGKATLTADKSSSATYMQLNSLTSEDSAVYFCARPIYYDYAYYFDYWGQGTTLTVSS
VL: DVVMTQSPLSLPVSLGDQASISCRSRQSLVHSNGNTYLHWYLQKPGQSPKVLIYKVSNRFSGVPDRFSGSGSGTDFTLKISRVEAEDLGVYFCSQSTHVPYTFGGGTKLEIKR
notes: human-murine chimeric antibody
B2: F2.92.1 (antibody, human IgG1, kappa, V domains shown)
VH: QVQLQQSGAELVRPGASVKLSCKASGYIFSDYEIHWVKQTPVHGLECIGAVDPETGGTAYNQKFKGKATLTADKSSSTAYMELRSLTSEDSAVYFCTRFYSFAYWGQGTLVTVST
VL: B1 VL with S7T, A19G, R26S, H39Q, V51L, S94C, P100L, Y101P
notes: as for B1
B3: F2.39.2 (antibody, human IgG1, kappa, V domains shown)
VH: QVQLQQSGAELVRPGASVKVSCKASGYTFTDYEMHWMKQTPVHGLEWIGANEPETGRSAYDQKFKGKATLTADKSSSTAYMELRSLTSEDSAVYYCTRFYSFAYWGQGTLVTVSA
VL: B1 VL with S7T, R26S, S28G, S32N, V51L, S96N, Y101P
notes: as for B1
B4: F1.136.7 (antibody, human IgG1, kappa, V domains shown)
VH: EVQLQQSGPVMVKPGPSVKISCQTSGFTFTDYYIHWVKQSHGKSLEWIGLVFPYDGGTNYNQKFKDKATLTLDTSSSTAYMELNSLTSEDSAVYYCARAGGFSYALNYWGQGTSVTVSS
VL: DIQMTQSPSSLSASLGGKVTITCKASQDINNYIAWYQHKPGKGPRLLIHFTSTLQPGIPSRFSGSGSGRDYSFSISNLEPEDIATYYCLQYDNLLLTFGAGTKLELKR
notes: as for B1
B5: F2.55.11 (antibody, human IgG1, kappa, V domains shown)
VH: EVKLVESGGGLVKPGGSLKLSCAASGLTFSTCTMSWVRQTPAKRLEWVATISSGGGNTYYPDSVKGRFTISRDNARNTLYLQMSSLRSEDTAMYYCVRLYYDGSPYAMDYWGQGTSVTVSS
VL: DIQMTQTTSSLSASLGDRVTISCRASQDISNHLNWYQQKPDGTVKLLIYYTSRLHSGVPSRFSGSGSGTDYSLTISNLEQEDIATYFCQQDSKPPPTFGSGTKLEIKR
notes: as for B1
B6: F1.118.4 (antibody, human IgG1, kappa, V domains shown)
VH: QVQLQQSGAELAKPGASVKLSCKASGYSFTSYWIHWVKQRPGQGLEWIGYINPSSGYTKYNQKFKDKATLTADKSSSTAYMQLSSLTYEDSAVYYCARFGSSSFYFDYWGQGTTLTVSS
VL: DIVLTQSPASLAVSLGQRATISCRASQSVSSSSYSYMHWYQQKPGQPPKLLIKYASNLDSGVPARFSGSGSGTDFTLNIHPVEEEDTATYYCQHSWEIPAFGGGTKLEIKR
notes: as for B1
B7: F1.3.9 (antibody, human IgG1, kappa, V domains shown)
VH: QVQLQQPGTELVKPGASVKLSCKASGYTFTSYWIHWVKQRPGQGLEWIGNINPPNAGTNYNEKFKSKATLTVDKSSSTAYMQLSSLTSEDSAVYYCARGRWLLHDYWGQGTTLTVSS
VL: DIQMTQSPASLSISVGETVTITCRASENIYSNLAWYQQKQGKSPQLLVYGTKNLAEGVPSRFSGSGSGTQYSLKINSLQSEDFGNYYCQHFWGTPYTFGGGTKLEILR
notes: as for B1
B8: F1.153.1 (antibody, human IgG1, kappa, V domains shown)
VH: QIQLVQSGPELKKPGETVKISCKASGYTFTTAGMQWVQKMPGKGFKWIGWINTHSGEPQYAEDFKGRFAFSLETSASTAYLQISNLKNEDTATYFCARSFYYHGSSFFYFDYWGQGTTLTVSS
VL: DIVMTQSQKFMSTTVGDRVSITCKASQNVGTAVAWYQQKPGQSPKLLIYSASNRYTGVPDRFTGSGSGADFTLTISNMQSEDLADYFCQQYSRYPLTFGAGTKLELKR
notes: as for B1
B9: F1.120.16 (antibody, human IgG1, kappa, V domains shown)
VH: EFQLQQSGPELVKPGASVKISCKASGYSFTDYNMNWVKQSNGKSLEWIGLIHPKFSVTSYNRKFKGKATLTVDQSSSTAYMQLNSLTSEDSAVYYCARWAGDYFDYWGQGTTLTVSS
VL: DIVLTQSPATLSVTPGDSVSLSCRASQSISNNLHWYQQKSHESPRLLIKYASQSISGIPSRFSGSGSGTDFTLTINSVETEDFGMYFCQQSNSWPQTFGGGTKLEIKR
notes: as for B1
B10: F1.115.8 (antibody, human IgG1, kappa, V domains shown)
VH: EVQLQQSGPELVKPGASVKMSCKASGYTFTEYYMHWVKQSHGKSLEWIGYIYPNNGGNGYNQKFKGKATLTVDKSSSTAYMGLRSLTSEDSAVYYCVRGYYSNWYFDVWGTGTTVTVSS
VL: DVLMTQTPLSLPVSLGDQASISCRSSQSIVHSNGKTYLEWYLQKPGQSPKLLIYKVSNRFSGVPDRFSGSGSGTDFTLKISRVEAEDLGVYYCFQGSHVPFTFGSGTKLEIKR
notes: as for B1
B11: F2.154.1 (antibody, human IgG1, kappa, V domains shown)
VH: QVQLQQSGAELVRPGASVKLSCKASGYRFTDYEMHWVKQTPVHGLEWIGTIDPETGNTAYTQKFMDKATLTADKSSSTAYMELRSLTSEDSAVYYCTRGYSFTYWGQGTLATVSA
VL: B10 VL with S28N, K35N, E39Q, Y54F, S105T
notes: as for B1
B12: F2.169.2 (antibody, human IgG1, kappa, V domains shown)
VH: EVQLVETGGGLVQPKGSLKLSCAASGFSFNTNAMNWVRQAPGKGLEWVARIRSKSNNYATYYADSVKDRFTISRDDSQSMLYLQMNNLKTEDTAMYYCVRDGYYVLFAYWGQGTLVTVSA
VL: B10 VL with S25F, H31N, K35N, Y41F, S105T
notes: as for B1
B13: F1.9.19 (antibody, human IgG1, kappa, V domains shown)
VH: DVQLQESGPGLVKPSQSLSLTCSVTGYSITSGYYWNWIRQFPGNRLEWMAYISYDGINNYNPSLKNRISIARDTSTNQFFLKLNSVTSEDTATYYCATTTEVALFDHWGQGTTLTVSS
VL: B10 VL with M4L, S28N, S32G, K35N, Y41F, V90L, G96A, F101W, S105G
notes: as for B1
B14: F2.23.8 (antibody, human IgG1, kappa, V domains shown)
VH: B2 VH with I28T, S30T, I34M, C47W, I48F, V51I, K65R, G66A, F95Y, T115A
VL: B1 VL with S7T, R26S, H39Q, V51L, S81T, G105S
notes: as for B1

How the values were obtained:
[1] = target: T1, polypeptide GC3pep (human); assay: ELISA, GC3pep coated, antibody 1 nM;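 note: bound antibody detected with an HRP-conjugated secondary antibody and TMB substrate, reaction stopped with HCl, after 2 h binding at 37 °C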
T1 construct: also called membrane proximal polypeptide GC3pep
T1 peptide: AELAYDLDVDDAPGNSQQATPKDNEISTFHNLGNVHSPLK

[2] = target: T1, polypeptide GC3pep; assay: ELISA, GC3pep coated, antibody 10 nM;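 note: antibody bound to the coated peptide for 2 h at 37 °C, detected through an HRP-conjugated secondary antibody with TMB colour development stopped by acid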
Procedure: (§1) The plate was sealed with a plastic film and incubated at 4° C. overnight, washed twice with PBS the next day, and a blocking solution [PBS+2% (w/w) BSA] was added for blocking at room temperature for 2 h. […] After incubation at 37° C. for 2 h, the plate was washed 3 times with PBS. A horseradish peroxidase (HRP)-labeled secondary antibody (purchased from Merck, Cat. No. AP113P) was added for incubation at 37° C. for 1 h, and the plate was washed 5 times with PBS. A TMB substrate was added at 50 μL/well for incubation at room temperature for 10 min, then a stop solution (1.0M HCl) was added at 50 μL/well.

[3] = target: T1, polypeptide GC3pep; assay: ELISA, GC3pep coated, antibody 0.1 nM;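 note: antibody allowed to bind the coated plate 2 h at 37 °C, then detected via HRP-conjugated secondary antibody and TMB development for 10 min, stopped with HCl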
Procedure: as §1

[4] = target: T1, polypeptide GC3pep; assay: ELISA, GC3pep coated, antibody 100 nM;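 note: detection with an HRP-conjugated secondary antibody and TMB substrate, color reaction stopped with HCl before absorbance reading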
Procedure: as §1

[5] = target: T1, polypeptide GC3pep; assay: ELISA, GC3pep coated, antibody 0.01 nM;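 note: bound antibody detected with an HRP-conjugated secondary antibody and TMB substrate, color reaction stopped with HCl before reading absorbance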
[6] = target: T1, polypeptide GC3pep; assay: ELISA, GC3pep coated, antibody 0.001 nM
[7] = target: T1, polypeptide GC3pep; assay: ELISA, GC3pep coated, antibody 0.0001 nM

Row | Binder | OD450 nm [1] [OD450 nm] | OD450 nm [2] [OD450 nm] | OD450 nm [3] [OD450 nm] | OD450 nm [4] [OD450 nm] | OD450 nm [5] [OD450 nm] | OD450 nm [6] [OD450 nm] | OD450 nm [7] [OD450 nm]
1 | B1 | 0.05 | 0.07 | 0.05 | 0.13 | 0.05 | 0.05 | 0.05
2 | B2 | 1.92 | 2.28 | 0.85 | 2.41 | 0.15 | 0.07 | 0.05
3 | B3 | 2.21 | 2.38 | 1.35 | 2.58 | 0.32 | 0.09 | 0.05
4 | B4 | 0.04 | 0.04 | 0.04 | 0.08 | 0.04 | 0.04 | 0.05
5 | B5 | 2.41 | 2.51 | 1.34 | 2.85 | 0.26 | 0.07 | 0.05
6 | B6 | 0.04 | 0.05 | 0.04 | 0.06 | 0.04 | 0.04 | 0.05
7 | B7 | 0.05 | 0.06 | 0.05 | 0.13 | 0.05 | 0.05 | 0.07
8 | B8 | 0.04 | 0.05 | 0.05 | 0.11 | 0.04 | 0.05 | 0.06
9 | B9 | 0.04 | 0.06 | 0.04 | 0.08 | 0.04 | 0.04 | 0.05
10 | B10 | 0.08 | 0.05 | 0.05 | 0.1 | 0.04 | 0.05 | 0.05
11 | B11 | 2.29 | 2.42 | 1.13 | 2.73 | 0.2 | 0.06 | 0.05
12 | B12 | 2.36 | 2.38 | 1.25 | 2.73 | 0.24 | 0.06 | 0.05
13 | B13 | 0.06 | 0.06 | 0.04 | 0.08 | 0.05 | 0.07 | 0.05
14 | B14 | 2.12 | 2.42 | 1.38 | 2.51 | 0.3 | 0.1 | 0.07
